Experimental findings from patent US20200172620A1 (Genentech, published 2020) are described below.

Assay [1] concerns the target T1, cynomolgous CD8 (as used in SPR) (cynomolgous monkey).
T1 construct: also called cyno CD8
As to the kind of experiment: SPR (Fab, by paragraph 255).

Assay [2] addresses T2, human CD8 (as used in SPR) (human, UniProt P01732 22-182).
T2 construct: also called huCD8
The experiment in a line: SPR (Fab, by paragraph 255).

Assay [3] deals with T2, human CD8 (as used in SPR). The experiment in a line: SPR.
Assay [4] concerns the target T1, cynomolgous CD8 (as used in SPR). As to the kind of experiment: SPR, Fab. In general terms: SPR reads the build-up and loss of mass on a sensor chip optically.
For assay [5], the target named is T3, cynomolgous CD8 on cells (FACS) (cynomolgous monkey).
T3 construct: whole, on cells; also called cyno CD8
As to the kind of experiment: FACS. (In general: Flow cytometry measures light scatter and fluorescence of single cells or particles in a stream.)

The target of assay [6] is T4, human CD8 on cells (FACS) (human, UniProt P01732 22-235).
T4 construct: whole, on cells
The experiment in a line: FACS.

Assay [7] addresses T5, rhesus CD8 on cells (FACS) (rhesus monkey, UniProt P01732 23-235 (human entry)).
T5 construct: also called rhesus monkey CD8
The experiment in a line: FACS.

Assay [8] concerns the target T1, cynomolgous CD8 (as used in SPR). The experiment in a line: SPR.
Assay [9] has as its target T6, mouse CD8 on CD8+ cells isolated from mouse blood (mouse, UniProt P01731 28-247).
T6 construct: whole, on cells
As to the kind of experiment: FACS with CD8+ cells isolated from mouse blood.

Assay [10] addresses T4, human CD8 on cells (FACS). As to the kind of experiment: FACS titration on cells carrying human CD8 (legend paragraph 23: CHO cells expressing recombinant human CD8; text paragraph 256: PBMCs).
The target in assay [11] is T7, rat CD8 on CD8+ cells isolated from rat blood (rat, UniProt P07725 27-236).
T7 construct: whole, on cells
T7 sequence (looked up): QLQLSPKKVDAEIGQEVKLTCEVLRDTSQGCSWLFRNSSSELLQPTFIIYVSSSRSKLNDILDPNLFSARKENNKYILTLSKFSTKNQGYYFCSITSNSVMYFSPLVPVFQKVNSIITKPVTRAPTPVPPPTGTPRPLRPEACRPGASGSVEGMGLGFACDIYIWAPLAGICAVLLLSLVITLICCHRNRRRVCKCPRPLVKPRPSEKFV
The experiment in a line: FACS with CD8+ cells isolated from rat blood.

Assay [12] addresses T2, human CD8 (as used in SPR). As to the kind of experiment: SPR, Fab.

T2 sequence (P01732 22-182): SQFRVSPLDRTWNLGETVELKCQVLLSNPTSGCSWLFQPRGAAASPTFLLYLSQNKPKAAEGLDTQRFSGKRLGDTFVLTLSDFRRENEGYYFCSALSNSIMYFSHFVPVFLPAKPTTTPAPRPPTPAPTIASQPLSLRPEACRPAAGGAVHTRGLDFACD
T4 sequence (P01732 22-235): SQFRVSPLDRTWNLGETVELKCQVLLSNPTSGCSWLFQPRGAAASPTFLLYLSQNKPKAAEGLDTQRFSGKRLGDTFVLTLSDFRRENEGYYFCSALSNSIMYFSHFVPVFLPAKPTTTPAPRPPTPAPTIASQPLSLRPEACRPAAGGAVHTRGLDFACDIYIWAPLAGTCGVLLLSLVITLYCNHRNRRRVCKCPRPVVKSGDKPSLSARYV
T5 sequence (P01732 other isoform, or with tags, fused parts or gaps limits assumed): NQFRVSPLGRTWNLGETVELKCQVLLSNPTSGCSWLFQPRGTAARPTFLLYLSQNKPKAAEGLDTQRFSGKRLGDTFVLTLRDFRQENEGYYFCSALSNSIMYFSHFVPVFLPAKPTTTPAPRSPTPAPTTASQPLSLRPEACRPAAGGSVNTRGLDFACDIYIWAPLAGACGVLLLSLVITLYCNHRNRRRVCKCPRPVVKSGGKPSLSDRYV
T6 sequence (P01731 28-247): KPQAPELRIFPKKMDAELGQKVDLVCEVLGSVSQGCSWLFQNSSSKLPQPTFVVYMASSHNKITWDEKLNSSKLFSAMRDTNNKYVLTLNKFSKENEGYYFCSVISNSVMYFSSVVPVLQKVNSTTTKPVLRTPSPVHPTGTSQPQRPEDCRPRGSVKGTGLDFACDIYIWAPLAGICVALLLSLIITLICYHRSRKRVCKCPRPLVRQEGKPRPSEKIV

B1: huOKT8.v9 (Fab, V domains shown)
VH: EVQLVQSGAEVKKPGASVKVSCKASGFNIKDTYIHWVRQAPGQGLEWIGRIDPANDNTLYASKFQGRATITADTSTSTAYLELSSLRSEDTAVYYCGRGYGYYVFDHWGQGTLVTVSS
VL: DVQITQSPSSLSASVGDRVTITCRTSRSISQYLAWYQEKPGKTNKLLIYSGSTLQSGIPSRFSGSGSGTDFTLTISSLQPEDFATYYCQQHNEFPVTFGQGTKVEIKR
notes: also called OKT.v9 Fab
Take B1: the equilibrium dissociation constant (Kd) in assay [1] amounted to 103 nM; in [2], 0.3 nM; in assay [5] it was 44 nM; in assay [6] it was 2 nM; in assay [7], 121 nM. In addition, the “Ratio of KD huOKT8.v1/KD variant for binding to huCD8” value (“Ratio of KD huOKT8.v1/KD variant” for short) in [3] was 37 X. Besides, in assay [4], the “fold improvement in binding compared to huOKT8.v1” value came out at 50 fold.

B2: huOKT8.v1 (antibody, V domains shown)
VH: EVQLVQSGAEVKKPGASVKVSCKASGFNIKDTYIHWVRQAPGQGLEWIGRIDPANDNTLYASKFQGRATITADTSTSTAYLELSSLRSEDTAVYYCGRGYGYYVFDHWGQGTLVTVSS
VL: DVQITQSPSSLSASVGDRVTITCRTSRSISQYLAWYQEKPGKTNKLLIYSGSTLQSGIPSRFSGSGSGTDFTLTISSLQPEDFATYYCQQHNENPLTFGQGTKVEIK
Regarding B2, the Kd in [8] was determined as 5250 nM.

B3: huOKT8.v11 (Fab, V domains shown)
VH: EVQLVQSGAEVKKPGASVKVSCKASGFNIKDTYIHWVRQAPGQGLEWIGRIDPANDNTLYASKFQGRATITADTSTSTAYLELSSLRSEDTAVYYCGRGYGYYVFDHWGQGTLVTVSS
VL: DVQITQSPSSLSASVGDRVTITCRTSRSISQYLAWYQEKPGKTNKLLIYSGSTLQSGIPSRFSGSGSGTDFTLTISSLQPEDFATYYCQQVNEFPPTFGQGTKVEIKR
notes: also called OKT.v11 Fab
For B3, the binding result in assay [9] and in assay [11] was “no binding” throughout. Besides, in assay [10], the “EC50 (read off the curve)” value was approximately 0.8 µg/mL. In addition, the Kd stood at 23 nM in assay [1]; 0.2 nM in assay [2]; 13 nM in assay [5]; 2 nM in [6]; 20 nM in assay [7]. Also, the “Ratio of KD huOKT8.v1/KD variant” value in assay [3] came out at 37 X. Moreover, the “fold improvement in binding compared to huOKT8.v1” value in assay [4] stood at 230 fold; in [12] it was 55 fold.

B4: huOKT8.v10 (antibody, V domains shown)
VH: EVQLVQSGAEVKKPGASVKVSCKASGFNIKDTYIHWVRQAPGQGLEWIGRIDPANDNTLYASKFQGRATITADTSTSTAYLELSSLRSEDTAVYYCGRGYGYYVFDHWGQGTLVTVSS
VL: DVQITQSPSSLSASVGDRVTITCRTSRSISQYLAWYQEKPGKTNKLLIYSGSTLQSGIPSRFSGSGSGTDFTLTISSLQPEDFATYYCQQHNEFPPTFGQGTKVEIKR
notes: The entries as printed are a Fab heavy chain and a whole kappa light chain
B4: the “Ratio of KD huOKT8.v1/KD variant” value in assay [3] turned out to be 18 X.

B5: huOKT8.v17 (antibody, V domains shown)
VH: EVQLVQSGAEVKKPGASVKVSCKASGFNIKDTYIHWVRQAPGQGLEWIGRIDPANDNTLYASKFQGRATITADTSTSTAYLELSSLRSEDTAVYYCGRGYGYYVFDHWGQGTLVTVSS
VL: DVQITQSPSSLSASVGDRVTITCRTSRSISKYLAWYQEKPGKTNKLLIYSGSTLQSGIPSRFSGSGSGTDFTLTISSLQPEDFATYYCQQVNEFPVTFGQGTKVEIKR
notes: as for B4
For the molecule B5, the “Ratio of KD huOKT8.v1/KD variant” value in assay [3] amounted to 210 X.

B6: huOKT8.v15 (antibody, V domains shown)
VH: EVQLVQSGAEVKKPGASVKVSCKASGFNIKDTYIHWVRQAPGQGLEWIGRIDPANDNTLYARKFQGRATITADTSTSTAYLELSSLRSEDTAVYYCTRGYGYYVFDTWGQGTLVTVSS
VL: DVQITQSPSSLSASVGDRVTITCRTSRSISQYLAWYQEKPGKTNKLLIYSGSTLQSGIPSRFSGSGSGTDFTLTISSLQPEDFATYYCQQVNEFPVTFGQGTKVEIKR
notes: as for B4
On to B6, for which, in [3], the “Ratio of KD huOKT8.v1/KD variant” value worked out at 210 X.

B7: huOKT8.v12 (antibody, V domains shown)
VH: EVQLVQSGAEVKKPGASVKVSCKASGFNIKDTYIHWVRQAPGQGLEWIGRIDPANDNTLYASKFQGRATITADTSTSTAYLELSSLRSEDTAVYYCGRGYGYYVFDHWGQGTLVTVSS
VL: DVQITQSPSSLSASVGDRVTITCRTSRSISQYLAWYQEKPGKTNKLLIYSGSTLQSGIPSRFSGSGSGTDFTLTISSLQPEDFATYYCQQVNEFPVTFGQGTKVEIK
In the case of B7, the “Ratio of KD huOKT8.v1/KD variant” value in [3] was 73 X.

The Kd is the equilibrium constant for the complex coming apart. Read a high Kd as a looser complex. In general, EC50 (read off the curve) refers to the concentration giving half of the maximal effect.
